Positions of bridges follow the written chain, without caps; N, C: chain ends. Non-standard residues stand in square brackets, D forms with d. Primed or numbered codes have the meaning given here. Trp(6-Cl) = N[C@@H](Cc1c[nH]c2cc(Cl)ccc12)C(=O)O; Lys(N3) = [N-]=[N+]=NCCCC[C@H](N)C(=O)O; R8 = C=CCCCCCC[C@@](C)(N)C(=O)O; S5 = C=CCCC[C@](C)(N)C(=O)O; Cba′ = not defined here; Aib = CC(C)(N)C(=O)O; βAla = NCCC(=O)O
Assays:
Test in all cases: fluorescence polarisation; competitive fluorescence anisotropy: unlabelled peptide titrated against 250 nM Mdm2 (1-125) with 50 nM FAM-labelled 12/1 peptide (FAM-…-NH2); PBS pH 7.4, 0.001% Tween-20; apparent Kd, geometric means
Conditions in all cases: both partners purified
human Mdm2 1-125 [1] = target: T1, human Mdm2 1-125 (human)
T1 construct: Mdm2, human, residues 1-125; the stretch after the TEV site ENLYFQG of the fusion protein; source: E. coli BL21 (DE3) Rosetta T1R, purified (Ni-NTA, gel filtration)

human Mdm2 1-125 [2] = target: T1, human Mdm2 1-125; remark: listed apart in the source
human Mdm2 1-125 [3] = target: T1, human Mdm2 1-125; remark: listed apart in the source
human Mdm2 1-125 [4] = target: T1, human Mdm2 1-125; remark: listed apart in the source

T1 sequence (chain, as listed by the source): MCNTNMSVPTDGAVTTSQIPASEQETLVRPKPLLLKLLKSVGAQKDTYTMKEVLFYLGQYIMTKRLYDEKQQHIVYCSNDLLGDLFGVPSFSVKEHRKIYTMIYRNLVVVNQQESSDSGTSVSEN

| Binder | Kd (human Mdm2 1-125 [1]) [nM] | Kd (human Mdm2 1-125 [3]) [nM] | further results |
| --- | --- | --- | --- |
| Ac-[Lys(N3)][βAla]LTF[R8]EYWEQ[Cba′][S5]SAA-NH2 (staple 6-13; reading uncertain) [AZIDE-ATSP-7041 (A8E)] | 3.2 |  |  |
| Ac-[Lys(N3)][βAla]KTF[R8]EYWAQ[Cba′][S5]SAA-NH2 (staple 6-13; reading uncertain) [AZIDE-ATSP-7041 (L1K)] |  |  | Kd (human Mdm2 1-125 [2]): 3.8 nM |
| Ac-[Lys(N3)][βAla]LTF[R8]EEWAQ[Cba′][S5]SAA-NH2 (staple 6-13; reading uncertain) [AZIDE-ATSP-7041 (Y6E)] | 5.1 |  |  |
| KXLTFXXYWAQXXSAA (homo-Arg (hR) at 5; N-terminal acetyl; Lys(N3) and beta-Ala before residue 1; R8 at 4 and S5 at 11 (olefin staple); Cba at 10; C-terminal amide) [AZIDE-ATSP-7041 (E5hR)] |  | 35.5 |  |
| KXLXFXEYWAQXXSAA (homo-Arg (hR) at 2; N-terminal acetyl; Lys(N3) and beta-Ala before residue 1; R8 at 4 and S5 at 11 (olefin staple); Cba at 10; C-terminal amide) [AZIDE-ATSP-7041 (T2hR)] |  | 2.8 |  |
| Ac-[Lys(N3)][βAla]LTF[R8]EYWAQ[Cba′][S5]KAA-NH2 (staple 6-13; reading uncertain) [AZIDE-ATSP-7041 (S12K)] |  |  | Kd (human Mdm2 1-125 [2]): 39.7 nM |
| Ac-[Lys(N3)][βAla]LTF[R8]EYWAE[Cba′][S5]SAA-NH2 (staple 6-13; reading uncertain) [AZIDE-ATSP-7041 (Q9E)] | 34.6 |  |  |
| KXLTFXEYWAQXXSXA (homo-Arg (hR) at 13; N-terminal acetyl; Lys(N3) and beta-Ala before residue 1; R8 at 4 and S5 at 11 (olefin staple); Cba at 10; C-terminal amide) [AZIDE-ATSP-7041 (A13hR)] |  | 42.5 |  |
| KXLTFXEYWAQXXXAA (homo-Arg (hR) at 12; N-terminal acetyl; Lys(N3) and beta-Ala before residue 1; R8 at 4 and S5 at 11 (olefin staple); Cba at 10; C-terminal amide) [AZIDE-ATSP-7041 (S12hR)] |  | 5 |  |
| Ac-[Lys(N3)][βAla]LTF[R8]EYWAQ[Cba′][S5]S[Aib]A-NH2 (staple 6-13; reading uncertain) [AZIDE-ATSP-7041 (A13 TO AIB)] | 15.2 |  |  |
| Ac-[Lys(N3)][βAla]LKF[R8]EYWAQ[Cba′][S5]SAA-NH2 (staple 6-13; reading uncertain) [AZIDE-ATSP-7041 (T2K)] |  |  | Kd (human Mdm2 1-125 [2]): 5.4 nM |
| Ac-[Lys(N3)][βAla]LTF[R8]EYWAQ[Cba′][S5]HAA-NH2 (staple 6-13; reading uncertain) [AZIDE-ATSP-7041 (S12H)] | 4.5 |  |  |
| Ac-[Lys(N3)][βAla]LTF[R8]HYWAQ[Cba′][S5]SAA-NH2 (staple 6-13; reading uncertain) [AZIDE-ATSP-7041 (E5H)] | 21.1 |  |  |
| KXXTFXEYWAQXXSAA (homo-Arg (hR) at 1; N-terminal acetyl; Lys(N3) and beta-Ala before residue 1; R8 at 4 and S5 at 11 (olefin staple); Cba at 10; C-terminal amide) [AZIDE-ATSP-7041 (L1hR)] |  | 8.6 |  |
| Ac-[Lys(N3)][βAla]LTF[R8]EYWKQ[Cba′][S5]SAA-NH2 (staple 6-13; reading uncertain) [AZIDE-ATSP-7041 (A8K)] |  |  | Kd (human Mdm2 1-125 [2]): 11.1 nM |
| Ac-[Lys(N3)][βAla]ATF[R8]EYWAQ[Cba′][S5]SAA-NH2 (staple 6-13; reading uncertain) [AZIDE-ATSP-7041 (L1A)] |  |  | Kd (human Mdm2 1-125 [2]): 10.7 nM |
| Ac-[Lys(N3)][βAla][dL]TF[R8]AY[Trp(6-Cl)]AA[Cba′][S5]S[dA]A-NH2 (staple 6-13; reading uncertain) [AZIDE-ATSP-7041 (L1 TO D-LEU, E5A, Q9A, W7 TO 6-CLTRP, A13 TO D-ALA)] |  |  | Kd (human Mdm2 1-125 [4]): 16.9 nM |
| Ac-[Lys(N3)][βAla]LEF[R8]EYWAQ[Cba′][S5]SAA-NH2 (staple 6-13; reading uncertain) [AZIDE-ATSP-7041 (T2E)] | 42.4 |  |  |
| Ac-[Lys(N3)][βAla]LTF[R8]EYEAQ[Cba′][S5]SAA-NH2 (staple 6-13; reading uncertain) [AZIDE-ATSP-7041 (W7E)] | > 101000 |  |  |

| Binder | Kd (human Mdm2 1-125 [1]) [nM] | Kd (human Mdm2 1-125 [3]) [nM] | further results |
| --- | --- | --- | --- |
| KXLTFXEYWAXXXSAA (homo-Arg (hR) at 9; N-terminal acetyl; Lys(N3) and beta-Ala before residue 1; R8 at 4 and S5 at 11 (olefin staple); Cba at 10; C-terminal amide) [AZIDE-ATSP-7041 (Q9hR)] |  | 28.5 |  |
| Ac-[Lys(N3)][βAla]LTF[R8]EYWAK[Cba′][S5]SAA-NH2 (staple 6-13; reading uncertain) [AZIDE-ATSP-7041 (Q9K)] |  |  | Kd (human Mdm2 1-125 [2]): 8.2 nM |
| Ac-[Lys(N3)][βAla]LTE[R8]EYWAQ[Cba′][S5]SAA-NH2 (staple 6-13; reading uncertain) [AZIDE-ATSP-7041 (F3E)] | 11200 |  |  |
| Ac-[Lys(N3)][βAla]LTF[R8]EYWRQ[Cba′][S5]SAA-NH2 (staple 6-13; reading uncertain) [AZIDE-ATSP-7041 (A8R)] |  | 69.4 |  |
| Ac-[Lys(N3)][βAla]LHF[R8]EYWAQ[Cba′][S5]SAA-NH2 (staple 6-13; reading uncertain) [AZIDE-ATSP-7041 (T2H)] | 64.2 |  |  |
| Ac-[Lys(N3)][βAla]LTA[R8]EYWAQ[Cba′][S5]SAA-NH2 (staple 6-13; reading uncertain) [AZIDE-ATSP-7041 (F3A)] |  |  | Kd (human Mdm2 1-125 [2]): 13200 nM |
| Ac-[Lys(N3)][βAla]LTF[R8]RYWAQ[Cba′][S5]SAA-NH2 (staple 6-13; reading uncertain) [AZIDE-ATSP-7041 (E5R)] |  | 33 |  |
| Ac-[Lys(N3)][βAla]LTF[R8]EYWAQE[S5]SAA-NH2 (staple 6-13) [AZIDE-ATSP-7041 (CBA10E)] | 312 |  |  |
| Ac-[Lys(N3)][βAla]RTF[R8]EYWAQ[Cba′][S5]SAA-NH2 (staple 6-13; reading uncertain) [AZIDE-ATSP-7041 (L1R)] |  | 62.9 |  |
| Ac-[Lys(N3)][βAla]HTF[R8]EYWAQ[Cba′][S5]SAA-NH2 (staple 6-13; reading uncertain) [AZIDE-ATSP-7041 (L1H)] | 0.7 |  |  |
| Ac-[Lys(N3)][βAla]LAF[R8]EYWAQ[Cba′][S5]SAA-NH2 (staple 6-13; reading uncertain) [AZIDE-ATSP-7041 (T2A)] |  |  | Kd (human Mdm2 1-125 [2]): 80.5 nM |
| Ac-[Lys(N3)][βAla]LTF[R8]KYWAQ[Cba′][S5]SAA-NH2 (staple 6-13; reading uncertain) [AZIDE-ATSP-7041 (E5K)] |  |  | Kd (human Mdm2 1-125 [2]): 115 nM |
| Ac-[Lys(N3)][βAla]LTF[R8]EYWAQ[Cba′][S5]RAA-NH2 (staple 6-13; reading uncertain) [AZIDE-ATSP-7041 (S12R)] |  | 78.7 |  |
| Ac-[Lys(N3)][βAla]LTF[R8]EYWAR[Cba′][S5]SAA-NH2 (staple 6-13; reading uncertain) [AZIDE-ATSP-7041 (Q9R)] |  | 45.9 |  |
| KXLTFXEYWAQXXSAX (homo-Arg (hR) at 14; N-terminal acetyl; Lys(N3) and beta-Ala before residue 1; R8 at 4 and S5 at 11 (olefin staple); Cba at 10; C-terminal amide) [AZIDE-ATSP-7041 (A14hR)] |  | 8.6 |  |
| Ac-[Lys(N3)][βAla]LTF[R8]EYWAH[Cba′][S5]SAA-NH2 (staple 6-13; reading uncertain) [AZIDE-ATSP-7041 (Q9H)] | 9.6 |  |  |
| Ac-[Lys(N3)][βAla]LRF[R8]EYWAQ[Cba′][S5]SAA-NH2 (staple 6-13; reading uncertain) [AZIDE-ATSP-7041 (T2R)] |  | 30.6 |  |
| Ac-[Lys(N3)][βAla]VTF[R8]VYWVQ[Cba′][S5]SAA-NH2 (staple 6-13; reading uncertain) [AZIDE-ATSP-7041 (L1V, E5V, A8V)] |  |  | Kd (human Mdm2 1-125 [4]): 122 nM |
